# B1: rhPDCD5: recombinant human programmed cell death 5 protein (SEQ ID NO:1) expressed in E. coli and purified (protein, listed as Homo sapiens)
# chain: MADEELEALRRQRLAELQAKHGDPGDAAQQEAKHREAEMRNSILAQVLDQSARARLSNLALVKPEKTKAVENYLIQMARYGQLSEKVSEQGLIEILKKVSQQTEKTTTVKFNRRKVMDSDEDDDY
# Assays:
# K562 cells = test: Annexin-V apoptosis by flow cytometry, Ara-C; type: cell-based
# Description: Methods: Cell staining with FITC/Annexin-V and cell apoptosis detection in vitro by flow cytometry: K562 cells (ATCC) were maintained in RPMI 1640 (Life Technologies, USA) supplemented with 10% FBS (Hyclone, USA), and were plated in 24-well culture dishes to a density of 2×10^5 cells per well. rhPDCD5 protein was added in each well with a final concentration of 15 μg/mL, 30 μg/mL and 60 μg/mL, respectively. Chemotherapeutic drug Ara-C (Pharmacia, Italia) was then added with a final concentration of 0.1 μg/mL and RPMI 1640 medium supplemented with 10% FBS was added to bring the culture system to 1 mL. After incubation for 48 hours, the cells were stained with Annexin-V/PI (Biosea) and then were analyzed for apoptosis by flow cytometry.
# [1] = test system: HeLa, MGC-803, HT-29, A549, PC-3, U937, HL-60, Jurkat T lymphocytes, K562, Raji, TF-1 cells; test: entry of exogenous PDCD5 into cell types; type: cell-based
# Jurkat cells = test: FITC/Annexin-V apoptosis by flow cytometry, DNR; type: cell-based
# Description: Methods: The density of Jurkat cells were adjusted by RPMI 1640 medium (Life Technologies, USA) supplemented with 10% Fetal Bovine Serum (FBS, Hyclone, USA). […] Subsequently, DNR (Pharmacia Italia S.P.A) was added with its final concentration of 0.05 μg/mL, and RPMI 1640 medium supplemented with 10% FBS was added to ensure the system to be 1 mL. After 24h incubation, the sample was stained with FITC/Annexin-V (Beijing Biosea Biotechnology CO., LTD) and detected for apoptosis by flow cytometry.
# U937 xenografts = test: U937 nude mice xenograft model, DNR; type: in vivo, BALB/c nude mice; details: fifteenth day; rhPDCD5 40 μg into the tumor, DNR 40 μg intraperitoneal, once a day for 8 days
# Description: Methods: U937 nude mice xenograft model: BALB/c nude mice (5-6 weeks of age) were pretreated with cyclophosphamide (100 mg/kg, injected intraperitoneally once a day for two consecutive days). On day 3, 1×10^7 (100 μl) of U937 cells were subcutaneously (s.c.) injected into a single flank of each of the mice. The treatments began on day 7 after inoculation when the average tumor diameter reached about 5 mm. The mice were divided randomly into four groups (n=6, i.e., six mice in each group) and treated with normal saline (NS), rhPDCD5 (40 μg, locally injected into the tumor), DNR (40 μg, intraperitoneal) or DNR (40 μg) plus rhPDCD5 (40 μg), once a day for 8 consecutive days.
# Tumor volume (V) was determined every other day by vernier caliper measurements and calculated based on the equation of V=ab^2/2, where “a” refers to a long tumor diameter and “b” refers to a short diameter, then tumor volume growth curve was drawn. The percentage of reductions in tumor growth was calculated using the formula: [1-(Tf-Ti)/(Cf-Ci)]×100, where Tf and Ti are the final and initial mean tumor volumes, respectively, of the group receiving a specific treatment, and Cf and Ci are the final and initial mean tumor volumes, respectively, of the NS control group. After the treatment, tumors were collected and weighed and tissues were sectioned and processed by histological hematoxylin and eosin (H&E) staining. Results were statistically analyzed using SPSS 13.0. The measurements were expressed as the mean±standard deviation. Data were analyzed by the single-factor ANOVA and Student's t test and are presented as mean±standard deviation (SD). P<0.05 was considered statistically significant.
molecule,measurement,setting,value
B1,promotion of apoptosis induced by Ara-C,K562 cells,could significantly promote apoptosis
same,specificity for cell types while entering into cells,[1],shows no specificity for cell types
same,enhancement of DNR-induced apoptosis,Jurkat cells,can significantly enhance DNR-induced apoptosis
same,Average size of tumors (mean ± SD),U937 xenografts,571.96 ± 237.91 mm^3
